How the values were obtained:
[1] = target: T1, Human C3d crystallised with Fab(3d8b) (human, UniProt P01024); assay: crystal structure; Fab(3d8b):C3d complex, sitting-drop vapor diffusion at 20°C, PEG, pH 7.0 to 8.5; 1.75 Å; PDB 7UE9; conditions: both partners purified
T1 construct: human C3d as in PDB 7UE9 chain C

[2] = target: T2, C3d deposited in the kidneys of CfH^-/- mice (mouse (endogenous in CfH^-/- mouse …, UniProt P01027)); assay: immunostaining of cells or tissue; proteins injected into CfH^-/- mice; frozen kidney sections taken 7 or 14 days post-dose and stained with anti-Crry or anti-human IgG4; conditions: one partner purified
T2 construct: C3d-containing fragments of mouse complement C3 deposited in renal glomeruli; source: endogenous, kidney glomeruli of CfH^-/- mice
T2 sequence (P01027 1002-1303): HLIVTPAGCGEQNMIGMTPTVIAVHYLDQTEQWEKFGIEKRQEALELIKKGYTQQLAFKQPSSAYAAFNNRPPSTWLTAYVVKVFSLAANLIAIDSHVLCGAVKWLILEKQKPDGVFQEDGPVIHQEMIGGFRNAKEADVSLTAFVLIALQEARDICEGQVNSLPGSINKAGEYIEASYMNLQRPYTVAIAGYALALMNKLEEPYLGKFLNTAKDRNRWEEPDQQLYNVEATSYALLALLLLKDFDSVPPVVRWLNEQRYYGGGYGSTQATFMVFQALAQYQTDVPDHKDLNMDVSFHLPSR

T1 sequence (P01024 1002-1303): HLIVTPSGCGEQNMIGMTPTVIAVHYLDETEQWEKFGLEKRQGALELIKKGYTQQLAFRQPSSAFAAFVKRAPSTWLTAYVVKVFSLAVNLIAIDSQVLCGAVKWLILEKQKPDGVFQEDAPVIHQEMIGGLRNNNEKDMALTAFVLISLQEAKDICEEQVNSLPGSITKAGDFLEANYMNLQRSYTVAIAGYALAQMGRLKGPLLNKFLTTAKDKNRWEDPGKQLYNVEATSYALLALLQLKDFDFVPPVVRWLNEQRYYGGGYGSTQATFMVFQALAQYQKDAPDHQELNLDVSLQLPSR

B1: humanized Fab(3d8b) (Fab, V domains shown)
VH: QVQLVQSGAEVKKPGASVKVSCKASGYTFTNYYINWVRQAPGQGLEWMGVINPYSGGTSYNQKFKGRVTMTVDTSTSTAYMELSSLRSEDTAVYFCSSPYWGQGTLVTVSS
VL: DVVMTQSPLSLPVTLGQPASISCKSSQSLLDSDGKTYLNWFQQRPGQSPRRLIYLVSKLDSGVPDRFSGSGSGTDFTLKISRVEAEDVGVYYCWQGTHFPRTFGGGTKVEIK
notes: heavy chain (H) of PDB 7UE9; light chain (L) of PDB 7UE9; CDRs of mouse clone 3d8b grafted onto a human framework; solved with an IgG4-derived Fab (PDB 5DK3) as search model; also called 3d8b Fab
- binding result [1]: binds

B2: humanized C3d mAb-CR1_(1-10) (antibody, V domains shown)
VH: B1 VH
VL: B1 VL
notes: humanised heavy variable region with the CDRs of 3d8b; as the variable region of the heavy chain of m3 (PDB 7UE9 chain H); human IgG4 heavy constant region, hinge stabilized and Fc-mutated; (Gly4Ser)2 linker; human complement receptor type 1 (CR1), the first 10 consensus repeats; humanised light chain with the CDRs of 3d8b; as the light chain of m3 (PDB 7UE9 chain L); also called lead fusion …
- binding result [2]: binds

B3: humanized C3d mAb (CDRs of 3d8b grafted onto human IgG4 S228P, L235E) (antibody, V domains shown)
VH: B1 VH
VL: B1 VL
notes: humanised heavy variable region with the CDRs of 3d8b; as the variable region of the heavy chain of m3 (PDB 7UE9 chain H); human IgG4 heavy constant region, hinge stabilized and Fc-mutated; humanised light chain with the CDRs of 3d8b; as the light chain of m3 (PDB 7UE9 chain L); IgG4; source: CHO cells, transient, purified (Protein A or IMAC, SEC)
- binding result [2]: binds

— paper PMC9244803, “Development and Optimization of Bifunctional Fusion Proteins to Locally Modulate Complement Activation in Diseased Tissue” (Frontiers in Immunology, 2022)
